Test results taken from paper PMC9113379 (Cell & Bioscience, 2022).
Numbering of substitutions follows the chain as printed.

B1: CB6 mAb (antibody, V domains shown)
VH: EVQLVESGGGLVQPGGSLRLSCAASGFTVSSNYMSWVRQAPGKGLEWVSVIYSGGSTFYADSVKGRFTISRDNSMNTLFLQMNSLRAEDTAVYYCARVLPMYGDYLDYWGQGTLVTVSS
VL: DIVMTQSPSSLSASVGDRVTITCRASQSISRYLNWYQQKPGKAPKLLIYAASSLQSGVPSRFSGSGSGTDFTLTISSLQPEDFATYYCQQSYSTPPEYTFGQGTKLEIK
B2: R3P2-A2 mAb (antibody, V domains shown)
VH: QVQLVQSGGGLIQPGGSLRLSCAASGVTVSSNYMSWVRQAPGRGLEWVSLIYPGGSTYYADSVKGRFTISRDNSRNTLYLQMNSLRAEDTAVYYCARDLSEKGGMDVWGQGTMVTVSS
VL: EIVMTQSPSVLPLFPGESGSLSCRASQNVGDFLAWYQHKPGQAPKLLIYGATNRPTGIPDRFSGTGSGTDFTLTISRMEPEDFAVYFCQQYGTSPPITFGPGTKVDIK
B3: R3P2-B5 mAb (antibody, V domains shown)
VH: B2 VH with M113L
VL: EIVMTQSPGTLSLSPGERVTLSCRTSQSVSRFFSWYQQKPGQAPRLLIHTASTRATDIPDRFSASGSGTDFTLTISRLEPEDSAMYYCQHYGASPYTFGQGTKVDIK
B4: R3P2-G1 mAb (antibody, V domains shown)
VH: B2 VH with M113T
VL: QAVLTQPPSVSVAPGKTARITCGGNHIGSKSVNWYQQKSGQAPVLVIYSDSDRPSGIPARFSGSNSGDTATLTISRVEAGDEADYYCQVWDNRSDHWVFGGGTQLTVL
B5: R3P1-E4 mAb (antibody, V domains shown)
VH: B2 VH with M113T
VL: DIVMTQSPSSLSASVGDRVTITCRASQGISSYLAWYQQKPGKAPKLLIYAASTLQSGVPSRFSGSGSGTDFTLTISSLQPEDFATYYCQQLNSYPRFGPGTKVEIK
B6: REGN10933 mAb (antibody, V domains shown)
VH: QVQLVESGGGLVKPGGSLRLSCAASGFTFSDYYMSWIRQAPGKGLEWVSYITYSGSTIYYADSVKGRFTISRDNAKSSLYLQMNSLRAEDTAVYYCARDRGTTMVPFDYWGQGTLVTVSS
VL: DIQMTQSPSSLSASVGDRVTITCQASQDITNYLNWYQQKPGKAPKLLIYAASNLETGVPSRFSGSGSGTDFTFTISGLQPEDIATYYCQQYDNLPLTFGGGTKVEIK

What was measured:
[1] = target: T1, SARS-CoV-2 S protein RBD domain (wild type) (SARS-CoV-2, UniProt P0DTC2); assay: ELISA; conditions: both partners purified
[2] = target: T1, SARS-CoV-2 S protein RBD domain (wild …); assay: SPR; conditions: both partners purified

Row | Binder | binding result [1] | Kd [2] [nM]
1 | B1 | binds | –
2 | B2 | – | 2.32
3 | B3 | binds | –
4 | B4 | binds | –
5 | B5 | – | 0.82
6 | B6 | binds | –
